The target in experiment [1] is T1, GAL13-BSA (Bos taurus, UniProt P02769).
T1 construct: purchased Sigma-Aldrich Co. LLC
The experiment is described as follows: Reactivity of novel monoclonal antibody by competitive ELISA (Example 6). The experiment is classed as binding. The method, then:
GAL13-BSA was added at 100 μL/well with a concentration of 1 μg/mL and immobilized overnight at 4° C. The plate was washed three times with PBS containing 0.05% (v/v) Tween 20 (PBS-T) and then blocked with a carbonate buffer solution (pH 9.5) containing 0.5% (w/v) gelatin for 1 hour. After preparation of a POD-labeled SJ-5 antibody (0.4 μg/mL) and an anti-glyceraldehyde-derived AGEs polyclonal antibody (6 μg/mL) as a control, 10-fold serial dilution solutions (50 μL each) of GAL13-BSA or control BSA and the POD-labeled SJ-5 antibody or the anti-glyceraldehyde-derived AGEs polyclonal antibody as a control (50 μL) were added to the antigen-immobilized plate, stirred with a plate mixer, and then left standing at room temperature for 1 hour. After washing, an o-phenylenediamine solution (100 μL) prepared into 0.5 mg/mL with a 0.1 M citrate-phosphate buffer solution (pH 5.0) containing 0.02% (w/v) hydrogen peroxide was added to each well and left standing at 25° C. for 10 minutes. Then, color reaction was terminated by the addition of a 1 M sulfuric acid solution (50 μL) to each well. Then, absorbance at 490 nm was measured with a microplate reader.
In general terms: In an ELISA, binding on a coated surface is turned into a signal by an enzyme label.

Experiment [2] has as its target T1, GAL13-BSA. The experiment is described as follows: Dissociation constant measurement, Biacore T200 (Example 8). The experiment is classed as binding. The settings on record: Biacore T200, sensor chip CM5; ligand GAL13-BSA. The method, then: The dissociation constant (Kd value) of the monoclonal antibody SJ-5 was measured by the following approach: BSA containing AGEs derived from glyceraldehyde (Glycer-AGEs-BSA) was diluted with a 10 mM sodium acetate solution (pH 4.0) to prepare a ligand solution with a final concentration of 100 μg/mL. Biacore T200 (GE Healthcare Japan Corp.) was used for the immobilization of the ligand and the calculation of the KD value. The ligand solution was immobilized onto sensor chip CM5 (GE Healthcare Japan Corp.) using an amine coupling kit (GE Healthcare Japan Corp.). Subsequently, antibody dilution solutions containing the monoclonal antibody diluted into concentrations from 0 to 400 nM were prepared, and the Kd value was calculated.
BSA chemically bonded to the peak obtained in fractionation by HPLC (GAL13-BSA) was diluted with a 10 mM sodium acetate solution (pH 5.0) to prepare a ligand solution with a final concentration of 25 μg/mL.
On the technique in general: In SPR one partner is held on a chip, and binding of the other changes the refractive index at the surface.

For experiment [3], the system named is retinal pigment epithelial cells (ARPE-19 cells). Kind of experiment: Tight junction breakdown suppression test, impedance by xCELLigence (Example 34). It is filed as cell-based. The method, then:
FBS (FUJIFILM Wako Pure Chemical Corp.) was added at 10% to D-MEM (FUJIFILM Wako Pure Chemical Corp.), and penicillin-streptomycin (Nacalai Tesque, Inc.) was added at 1% thereto to prepare DMEM medium. ARPE-19 cells (ATCC) were cultured in the DMEM medium using a 10 cm dish (Corning Inc.).
xCELLigence RTCA DP system (ACEA Biosciences, Inc.) was installed in a CO2 incubator and used in a state loaded overnight or longer after the installation for stabilization. Immediately before cell preparation, DMEM medium was added at 50 μL/well to E-plate (ACEA Biosciences, Inc.), and a background was measured.
The medium was removed from the ARPE-19 cells cultured in (1) described above, which were then washed by repeating the addition and removal of 10 mL of PBS(−) (FUJIFILM Wako Pure Chemical Corp.) twice. 1 mL of trypsin-EDTA (FUJIFILM Wako Pure Chemical Corp.) was added thereto, and the cells were dispersed by incubation in a CO2 incubator (Taitec Corp.) at 37° C. for 3 minutes. Then, the activity of trypsin was neutralized by the addition of 10 mL of DMEM medium. The neutralized cell dispersion was transferred to a 50 mL tube (Falcon) and centrifuged at 1500 rpm for 5 minutes using a centrifuge (Kubota Corp.). Then, the supernatant was discarded, and the precipitates were resuspended in 1 mL of DMEM medium. A 10 μL aliquot of the resuspended cell dispersion was mixed with 10 μL of Trypan Blue (NanoEnTek Inc.), and 10 μL thereof was added to a counting chamber (NanoEnTek Inc.). Then, the number of live cells was counted in Auto Cell Counter EVE (NanoEnTek Inc.). The cell suspension was diluted into 4.0×10^5 cells/mL with DMEM medium and inoculated at 80 μL/well to E-plate (ACEA Biosciences, Inc.).
The impedance of the plate was measured every 15 minutes using the xCELLigence RTCA DP system to confirm the adhesion of the cells to the plate. […] After the addition, the impedance was also measured every 15 minutes.
The impedance was measured 10 to 12 hours after the addition of A-peak-BSA and normalized to that of the A-peak-BSA addition group defined as 0.

For a further experiment, the target named is A-peak-BSA (Bos taurus, UniProt P02769). The experiment is described as follows: Dissociation constant measurement of PB-1, Biacore T200 (Example 26). The conditions noted are these: Biacore T200, CM5; ligand A-peak-BSA; PB-1 0.1953 to 50 nM; 1:1 binding model. The method, then:
The dissociation constant (Kd value) of the monoclonal antibody PB-1 was measured by the following approach: A-peak-BSA was diluted with a 10 mM sodium acetate solution (pH 5.0) to prepare a ligand solution with a final concentration of 50 μg/mL. Biacore T200 (GE Healthcare Japan Corp.) was used for the immobilization of the ligand and the calculation of the KD value. The ligand solution was immobilized (final amount immobilized: 72 RU) onto sensor chip CM5 (GE Healthcare Japan Corp.) using an amine coupling kit (GE Healthcare Japan Corp.). Subsequently, PB-1 antibody dilution solutions from 0.1953 to 50 nM were prepared with a running buffer solution HBS-P+ (GE Healthcare Japan Corp.), and a sensorgram was obtained.
1:1 binding was adopted to a fitting model, and the sensorgram was analyzed.

T1 sequence (P02769 25-607): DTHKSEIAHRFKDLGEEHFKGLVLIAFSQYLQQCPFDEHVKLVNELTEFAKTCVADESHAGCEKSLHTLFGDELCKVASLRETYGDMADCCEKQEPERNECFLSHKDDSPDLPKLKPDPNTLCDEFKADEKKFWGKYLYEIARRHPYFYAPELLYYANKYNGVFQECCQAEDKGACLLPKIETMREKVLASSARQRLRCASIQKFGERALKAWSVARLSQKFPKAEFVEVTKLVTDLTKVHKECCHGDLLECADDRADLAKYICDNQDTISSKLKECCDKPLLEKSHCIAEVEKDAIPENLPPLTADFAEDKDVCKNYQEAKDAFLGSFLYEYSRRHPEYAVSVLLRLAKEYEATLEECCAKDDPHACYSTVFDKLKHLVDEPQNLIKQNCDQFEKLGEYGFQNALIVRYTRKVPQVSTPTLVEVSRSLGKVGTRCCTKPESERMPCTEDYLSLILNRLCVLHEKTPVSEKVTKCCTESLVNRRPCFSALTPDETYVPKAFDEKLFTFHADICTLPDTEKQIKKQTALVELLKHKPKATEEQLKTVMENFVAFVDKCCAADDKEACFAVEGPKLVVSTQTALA
A-peak-BSA, sequence (P02769 25-607): as above

B1: SJ-5: mouse monoclonal antibody raised against GAL13-MSA; heavy-chain variable region SEQ ID NO 4, light-chain variable region SEQ ID NO 8 (antibody, listed as Mus musculus, V domains shown)
VH: EVMLVESGGRLVKPGGSLKLSCAASGFTFSSYGMSWVRQTPEKRLEWVATISGGGSYTYYPDSVKGRFTISRDNVKNNLYLQMSSLRSEDTALYYCARRGAYGDYGWFAYWGQGTLVTVSA
VL: DIVLTQSPATLSVTPGDSVSLSCRASQSINNNLHWYQQKSHESPRLLIKCASQSISGIPSRFSGSGSGTDFTLSINSVETEDFGMYFCQQSNSWPLTFGAGTKLELK
On to B1, for which the “antibody concentration giving similar results, lower than that of the polyclonal antibody” value with GAL13-BSA [1] (competitive ELISA, versus anti-glyceraldehyde-derived AGEs polyclonal antibody) is reported as 15 times. In addition, in the experiment with GAL13-BSA [1] (immobilized GAL13-BSA, POD-labeled SJ-5 0.4 μg/mL, polyclonal antibody 6 μg/mL), the “reactivity with GAL13-BSA in the competitive method” value is listed as “react favorably”. Besides, binding in the experiment with GAL13-BSA [2] was put at a Kd of 87.5 nM. In experiment [3] (SJ-5 final concentration of 1 mg/mL), the “suppression of A-peak-BSA-induced reduction in impedance” value was “suppression of the reduction was found”.

B2: PB-1: mouse monoclonal antibody raised against A-peak-BSA; heavy-chain variable region SEQ ID NO 18, light-chain variable region SEQ ID NO 22 (antibody, listed as Mus musculus, V domains shown)
VH: EVRLQQSGPELVKPGTSVKISCKASGYSFTGYYMHWVKQSPVKSLEWIGRIIPYNGATSYNQNFKDKASLTVDKSSRTAYMDLHSLTSEDSAVYYCARSRYYGRAPYYFDYWGQGTTLTVSS
VL: DVVVTQTPLSLPVSLGDQASISCRSSQSIVHSNGNTYLEWYLQKPGQSPKLLIYKVSNRFSGVPDRISGSGSGTDFTLKISRVEAGDLGVYSCFQGSHVPFTFGSGTKLEIK
The molecule B2 showed a Kd with A-peak-BSA of 4.15 nM. In addition, the “suppression of A-peak-BSA-induced reduction in impedance” value in experiment [3] (9 μL of PB-1 at 10, 3, 1 or 0.3 mg/mL) is recorded as “significantly suppressed”. For the same molecule, the “suppression of reduction in impedance compared with SJ-5 antibody” value in experiment [3] (PB-1 even in a lower concentration region) is “stronger suppression than that by the SJ-5 antibody”.

For orientation: Kd means a measure of binding affinity in units of concentration. Higher therefore signals lower affinity.
